According to patent US20230293713A1, “ANTI-TM4SF1 ANTIBODY DRUG CONJUGATES AND METHODS OF USING SAME” (priority 2020, published 2023):
Like-named read-outs stand apart in the source and are kept apart here.

T1: Transmembrane-4 L six family member-1 (TM4SF1) (human, UniProt P30408 1-202, limits assumed)
T1 construct: also called human TM4SF1; hTM4SF1
T1 sequence: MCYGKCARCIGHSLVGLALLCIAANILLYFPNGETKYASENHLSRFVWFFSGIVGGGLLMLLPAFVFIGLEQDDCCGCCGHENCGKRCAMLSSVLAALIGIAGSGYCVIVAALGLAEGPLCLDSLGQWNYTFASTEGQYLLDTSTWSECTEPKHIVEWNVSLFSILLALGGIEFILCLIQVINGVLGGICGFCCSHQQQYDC

B1: AGX-A03 (antibody, V domains shown)
VH: QIQLVQSGPELKKPGETVKISCKASGYSFRDYGMNWVKQAPGRTFKWMGWINTYTGAPVYAADFKGRFAFSLDTSASAAFLQINNLKNEDTATYFCARWVSYGNNRNWFFDFWGAGTTVTVSS
VL: DVLMTQTPLSLPVRLGDQASISCRSSQTLVHSNGNTYLEWYLQKPGQSPKLLIYKVSNRLSGVPDRFSGSGSGTDFTLKISRVETEDLGVYYCFQGSHGPWTFGGGTKLEIK
notes: Monoclonal murine antibody; also called Antibody AGX-A03; murine monoclonal antibody AGX-A03
B2: AGX-A04 (antibody, V domains shown)
VH: EVQLQQSGPELVKPGASVKISCKTSGYTFTDYTMHWVRQSHGKSLEWIGSFNPNNGGLTNYNQKFKGKATLTVDKSSSTVYMDLRSLTSEDSAVYYCTRIRATGFDSWGQGTTLTVSS
VL: DIVMSQSPSSLAVSAGEKVTMSCKSSQSLLNSRTRKNYLAWYQQKPGQSPKLLIYWASTRESGVPDRFTGSGSGTDFTLTISNVQAEDLTVYYCKQSYNPPWTFGGGTKLEIK
notes: Monoclonal murine antibody; also called murine monoclonal antibody AGX-A04
B3: AGX-A05 (antibody, V domains shown)
VH: EVQVQQSGPELVKPGASVKMSCKASGYTFTSYVMHWVKQKPGQGLEWIGYINPNNDNINYNEKFKGKASLTSDKSSNTVYMELSSLTSEDSAVYYCAGYGNSGANWGQGTLVTVSA
VL: DIQMTQSPASLSASVGETVTITCRTSKNIFNFLAWYHQKQGRSPRLLVSHTKTLAAGVPSRFSGSGSGTQFSLKINSLQPEDFGIYYCQHHYGTPWTFGGGTKLEIK
notes: Monoclonal murine antibody; also called murine monoclonal antibody AGX-A05
B4: AGX-A07 (antibody, V domains shown)
VH: QIQLVQSGPELKKPGETVKISCKASGYTFTNYGVKWVKQAPGKDLKWMGWINTYTGNPIYAADFKGRFAFSLETSASTAFLQINNLKNEDTATYFCVRFQYGDYRYFDVWGAGTTVTVSS
VL: QIILSQSPAILSASPGEKVTMTCRANSGISFINWYQQKPGSSPKPWIYGTANLASGVPARFGGSGSGTSYSLTISRVEAEDAATYYCQQWSSNPLTFGAGTKLELR
notes: also called murine monoclonal antibody AGX-A07
B5: AGX-A08 (antibody, V domains shown)
VH: EVQLQQSGPELVKPGASVKLSCKASGYTVTSYVMHWVKQKPGQGLEWIGYINPYSDVTNCNEKFKGKATLTSDKTSSTAYMELSSLTSEDSAVYYCSSYGGGFAYWGQGTLVTVSA
VL: DIQMTQSPASLSASVGEPVTITCRASKNIYTYLAWYHQKQGKSPQFLVYNARTLAGGVPSRLSGSGSVTQFSLNINTLHREDLGTYFCQHHYDTPYTFGGGTNLEIK
notes: Monoclonal murine antibody; also called murine monoclonal antibody AGX-A08
B6: AGX-A09 (antibody, V domains shown)
VH: EVQLQQSGPELVKPGASVKMSCKASGYTFSSYVMHWVKQKPGQGLEWIGYINPYSDVTNYNEKFKGKATLTSDRSSNTAYMELSSLTSEDSAVYYCARNYFDWGRGTLVTVSA
VL: DIQMTQSPASLSASVGETVTITCRASKNVYSYLAWFQQKQGKSPQLLVYNAKTLAEGVPSRFSGGGSGTQFSLKINSLQPADFGSYYCQHHYNIPFTFGSGTKLEIK
notes: Monoclonal murine antibody; also called murine monoclonal antibody AGX-A09

Legend:
[1] = in vivo; cited from earlier work
HUVEC = test: Cell killing assay in HUVEC (PrestoBlue viability, 5 days); type: cell-based; conditions: Homo sapiens
Description: To assess the effect of anti-TM4SF1 ADCs conjugated to carfilzomib, cytotoxicity of treated cell lines were assessed in cultured endothelial cell (HUVEC) and tumor cells (MiaPaca2 and SKOV3) in vitro. HUVEC was treated with free carfilzomib, CFZ-ND-ADC DAR 2.5, and CFZ-ND-ADC DAR 6.7, and maytansine-ND-ADC (DAR 2.0) and cytotoxicity was assessed (FIG. 2A). Cytotoxicity of HUVEC correlates with CFZ DAR. […] Cell killing assay. […] RPMI/10% FBS for MiaPaca2 and SKOV3). Cells are cultured for overnight at 37° C. degrees. On day 2, exemplary ADCs containing CFZ are serially diluted 5-fold in the culture media, and 100 µL of the diluted compounds is transferred to the cell plates. The final top concentration of the test exemplary ADCs in the cell plates is 333.335 nM and the lowest concentration is 0.0043 nM. […] 10 µl PrestoBlue HS cell viability reagent (ThermoFisher cat# P50201) is added to each well and incubated for 1 hour in CO2 incubator before reading the […] at 570 nm/600 nm excitation and emission through a plate reader (Varioskan™ LUX multimode microplate reader). To assess the effect of various anti-TM4SF1 ADCs conjugated to carfilzomib, cytotoxicity of treated cell lines were assessed. HUVEC was treated with free carfilzomib, and six ADCs (Table 1A) conjugated with carfilzomib (CFZ) with various linkers and/or DAR values, and cytotoxicity was assessed (Table 1B).

[2] = target: T1, Transmembrane-4 L six family member-1 …; test: screen, method not described

Molecule	binding result [2]	further results
COc1ccc(/C=C\c2cc(OC)c(OC)c(OC)c2)cc1OP(=O)(O)O [CA4P]		patients who experienced heart attacks while being treated [1]: seven
CC(C)C[C@H](NC(=O)[C@H](CCc1ccccc1)NC(=O)CN1CCOCC1)C(=O)N[C@@H](Cc1ccccc1)C(=O)N[C@@H](CC(C)C)C(=O)[C@@]1(C)CO1 [CFZ, (S)-4-Methyl-N—((S)-1-(((S)-4-methyl-1-((R)-2-methyloxiran-2-yl)-1-oxopentan-2-yl)amino)-1-oxo-3-phenylpropan-2-yl)-2-((S)-2-(2-morpholinoacetamido)-4-phenylbutanamido)-pentanamide]		EC50 (HUVEC; FIG. 2A, read-out: EC50, cytotoxicity of HUVEC): 11.9 nM; EC50 (HUVEC; read-out: killing in vitro (EC50 nM) HUVEC): 11.9 nM
B1	binds	
B2	binds	
B3	binds	
B4	binds	
B5	binds	
B6	binds	
